As a reminder, the stoichiometry N is the number of molecules, sites or subunits per partner or assembly.

The values below come from paper doi:10.1101/2020.09.29.317909.

The assay concerns the target MtMce4A_(39-140) (Mycobacterium tuberculosis). The experiment in a line: SEC-MALS.

In the case of MtMce4A_(39-140) (domain or fragment), the stoichiometry N amounted to 2.
